Blank lines part the entries; values can stand above or below the molecule they belong to.
What was measured:
[1] = biological target: wild-type CotE protein from Bacillus cereus (Bacillus cereus); assay: cryo-EM structure; CotE 2 mg/mL with 5 mM CaCl2 (meshwork); C3 map of the trimer unit at 6.55 Å and C2 map of two joined trimers at 6.86 Å; AlphaFold2 trimer models fitted
[2] = biological target: wild-type CotE protein from Bacillus cereus (Bacillus cereus); assay: SEC; Superdex 200 Increase 10/300 GL, 20 mM Tris-HCl pH 8.0 with 5 mM CaCl2; CotE 5 mg/mL; apparent molecular weight from a calibration curve
[3] = biological target: wild-type CotE protein from Bacillus cereus (Bacillus cereus); assay: SEC; Superdex 200 Increase 10/300 GL, 20 mM Tris-HCl pH 8.0, no CaCl2; CotE 5 mg/mL; apparent molecular weight from a calibration curve
[4] = biological target: CotE (outer coat protein CotE); conditions: PBS pH 7.2, 25 °C; 100 µM protein in cell, 1 mM DPA in syringe; C-terminal His-tagged trimeric mutant
[5] = biological target: W65E variant CotE protein, C-terminal His-tagged (Bacillus cereus); assay: SEC-MALS; Superdex 75 Increase 10/300 GL, 2 mg/mL protein, 20 mM Tris pH 8.0

stoichiometry N [1]: 3
stoichiometry N [2]: > 100
stoichiometry N [3]: 12
Molecule: wild-type CotE protein from Bacillus cereus (natural protein)

Molecule: O=C(O)c1cccc(C(=O)O)n1 [DPA, dipicolinic acid]
Kd [4]: 6.3 µM

Molecule: W65E variant CotE protein, C-terminal His-tagged (natural protein)
stoichiometry N [5]: 3
